Data: patent US20210292396A1 (INTERNATIONAL AIDS VACCINE INITIATIVE, published 2021)
Positions count from the first letter of the chain named.

Tests used:
Assay in all cases: cell-based or functional assay
HIV Env of isolate 263-8 = HIV Env of isolate 263-8 (HIV)
[1] = target: HIV Env of isolate T250-4 (HIV)
[2] = target: HIV Env of isolate C1080.c03 (HIV)
[3] = target: HIV Env of isolate R2184.c04 (HIV)
[4] = target: HIV Env of isolate R3265.c06 (HIV)
[5] = target: HIV Env of isolate C4118.c09 (HIV)
HIV Env of isolate CNE8 = HIV Env of isolate CNE8 (HIV)
[6] = target: HIV Env of isolate A07412M1.vrc12 (HIV)
[7] = target: HIV Env of isolate 6811.v7.c18 (HIV)
[8] = target: HIV Env of isolate 6041.v3.c23 (HIV)
[9] = target: HIV Env of isolate 6540.v4.c1 (HIV)
[10] = target: HIV Env of isolate 3103.v3.c10 (HIV)
[11] = target: HIV Env of isolate TRO.11 (HIV)
[12] = target: HIV Env of isolate AC10.0.29 (HIV)
[13] = target: HIV Env of isolate RHPA4259.7 (HIV)
[14] = target: HIV Env of isolate TRJO4551.58 (HIV)
[15] = target: HIV Env of isolate CAAN5342.A2 (HIV)
[16] = target: HIV Env of isolate 1006_11_C3_1601 (HIV)
[17] = target: HIV Env of isolate 1056_10_TA11_1826 (HIV)
[18] = target: HIV Env of isolate 62357_14_D3_4589 (HIV)
[19] = target: HIV Env of isolate SC05_8C11_2344 (HIV)
[20] = target: HIV Env of isolate ZM197M.PB7 (HIV)
[21] = target: HIV Env of isolate ZM53M.PB12 (HIV)
[22] = target: HIV Env of isolate ZM135M.PL10a (HIV)
[23] = target: HIV Env of isolate CAP45.2.00.G3 (HIV)
[24] = target: HIV Env of isolate HIV-16055-2.3 (HIV)
[25] = target: HIV Env of isolate HIV-16845-2.22 (HIV)
[26] = target: HIV Env of isolate Ce1172_H1 (HIV)
[27] = target: HIV Env of isolate 7030102001E5(Rev-) (HIV)
[28] = target: HIV Env of isolate 1394C9G1(Rev-) (HIV)
HIV Env of isolate CNE52 = HIV Env of isolate CNE52 (HIV)
HIV Env of isolate CNE53 = HIV Env of isolate CNE53 (HIV)
[29] = target: HIV Env of isolate Q461.e2 (HIV)
[30] = target: HIV Env of isolate 0330.v4.c3 (HIV)
[31] = target: HIV Env of isolate 0260.v5.c36 (HIV)
[32] = target: HIV Env of isolate 191955_A11 (HIV)
[33] = target: HIV Env of isolate T278-50 (HIV)
[34] = target: HIV Env of isolate BJOX028000.10.3 (HIV)
[35] = target: HIV Env of isolate 231965.c01 (HIV)
[36] = target: HIV Env of isolate 6041.v3.c23 (HIV); remark: listed apart in the source
[37] = target: HIV Env of isolate 6540.v4.c1 (HIV); remark: listed apart in the source
[38] = target: HIV Env of isolate ZM249M.PL1 (HIV)
[39] = target: HIV Env of isolate HIV-0013095-2.11 (HIV)
[40] = target: HIV Env of isolate Ce2060_G9 (HIV)
[41] = target: HIV Env of isolate 249M_B10 (HIV)

B1: PGT-121 (antibody, V domains shown)
VH: QMQLQESGPGLVKPSETLSLTCSVSGASISDSYWSWIRRSPGKGLEWIGYVHKSGDTNYSPSLKSRVNLSLDTSKNQVSLSLVAATAADSGKYYCARTLHGRRIYGIVAFNEWFTYFYMDVWGNGTQVTVSS
VL: SDISVAPGETARISCGEKSLGSRAVQWYQHRAGQAPSLIIYNNQDRPSGIPERFSGSPDSPFGTTATLTITSVEAGDEADYYCHIWDSRVPTKWVFGGGTTLTVLG
- neutralization IC50 (HIV Env of isolate 263-8): 648 ng/mL
- neutralization IC50 [1]: 1 ng/mL
- neutralization IC50 [2]: > 50000 ng/mL
- neutralization IC50 [3]: > 50000 ng/mL
- neutralization IC50 [4]: > 50000 ng/mL
- neutralization IC50 [5]: > 50000 ng/mL
- neutralization IC50 (HIV Env of isolate CNE8): > 50000 ng/mL
- neutralization IC50 [6]: 9 ng/mL
- neutralization IC50 [7]: 1 ng/mL
- neutralization IC50 [8]: > 50000 ng/mL
- neutralization IC50 [9]: > 50000 ng/mL
- neutralization IC50 [10]: 9 ng/mL
- neutralization IC50 [11]: 5 ng/mL
- neutralization IC50 [12]: 24 ng/mL
- neutralization IC50 [13]: 15 ng/mL
- neutralization IC50 [14]: 1310 ng/mL
- neutralization IC50 [15]: 7 ng/mL
- neutralization IC50 [16]: 2 ng/mL
- neutralization IC50 [17]: 4 ng/mL
- neutralization IC50 [18]: 2600 ng/mL
- neutralization IC50 [19]: 19 ng/mL
- neutralization IC50 [20]: > 50000 ng/mL
- neutralization IC50 [21]: 1 ng/mL
- neutralization IC50 [22]: 716 ng/mL
- neutralization IC50 [23]: 1630 ng/mL
- neutralization IC50 [24]: 153 ng/mL
- neutralization IC50 [25]: 3970 ng/mL
- neutralization IC50 [26]: 11 ng/mL
- neutralization IC50 [27]: 9 ng/mL
- neutralization IC50 [28]: 264 ng/mL
- neutralization IC50 (HIV Env of isolate CNE52): 2050 ng/mL
- neutralization IC50 (HIV Env of isolate CNE53): 7 ng/mL
- neutralization IC50 [29]: > 50000 ng/mL
- neutralization IC50 [30]: 50 ng/mL
- neutralization IC50 [31]: 53 ng/mL
- neutralization IC50 [32]: > 50000 ng/mL

B2: ePGT121.15.H1.L1 (antibody, V domains shown)
VH: QMQLQESGPGLVKPGETLSLTCSVSGASISSSYWSWLRETPGKGLEWIGYTHHSGDTNYAPSLKSRVHLGLHPSKNQVSLSLTSVTAADTAVYYCARTLHGRRIYGVVAFNEWFTYFYWEVWGNGTQVTVSS
VL: SDISVAPGETVRISCGGESIGSRAVQWYQHRAGQAPKLIIYNNQDRPPGIPERFSGSPDIDFGTTATLTITNVEAGDEATYYCHIWDSRRPTNWVFGGGTTLTVL
- neutralization IC50 (HIV Env of isolate 263-8): 4.4 ng/mL
- neutralization IC50 [1]: 0.2 ng/mL
- neutralization IC50 [2]: > 50000 ng/mL
- neutralization IC50 [3]: > 50000 ng/mL
- neutralization IC50 [4]: > 50000 ng/mL
- neutralization IC50 [5]: > 50000 ng/mL
- neutralization IC50 (HIV Env of isolate CNE8): > 50000 ng/mL
- neutralization IC50 [6]: 2.2 ng/mL
- neutralization IC50 [7]: 1.2 ng/mL
- neutralization IC50 [8]: 12400 ng/mL
- neutralization IC50 [9]: > 50000 ng/mL
- neutralization IC50 [10]: 1.7 ng/mL
- neutralization IC50 [11]: 0.1 ng/mL
- neutralization IC50 [12]: 0.2 ng/mL
- neutralization IC50 [13]: 0.3 ng/mL
- neutralization IC50 [14]: 0.5 ng/mL
- neutralization IC50 [15]: 0.2 ng/mL
- neutralization IC50 [16]: 0.3 ng/mL
- neutralization IC50 [17]: 0.1 ng/mL
- neutralization IC50 [18]: 4 ng/mL
- neutralization IC50 [19]: 0.9 ng/mL
- neutralization IC50 [20]: > 50000 ng/mL
- neutralization IC50 [21]: 0.6 ng/mL
- neutralization IC50 [22]: 132 ng/mL
- neutralization IC50 [23]: 5020 ng/mL
- neutralization IC50 [24]: 0.3 ng/mL
- neutralization IC50 [25]: 7.2 ng/mL
- neutralization IC50 [26]: 0.3 ng/mL
- neutralization IC50 [27]: 0.2 ng/mL
- neutralization IC50 [28]: 0.4 ng/mL
- neutralization IC50 (HIV Env of isolate CNE52): 20.3 ng/mL
- neutralization IC50 (HIV Env of isolate CNE53): 1 ng/mL
- neutralization IC50 [29]: > 50000 ng/mL
- neutralization IC50 [30]: 1.5 ng/mL
- neutralization IC50 [31]: 4 ng/mL
- neutralization IC50 [32]: > 50000 ng/mL
- neutralization (Table 6 value) [33]: 0.0232
- neutralization (Table 6 value) [34]: 0.0278
- neutralization (Table 6 value) [35]: 0.68
- neutralization (Table 6 value) [36]: 0.396
- neutralization (Table 6 value) [37]: 0.249
- neutralization (Table 6 value) [38]: 0.00404
- neutralization (Table 6 value) [39]: 1.07
- neutralization (Table 6 value) [40]: 0.0102
- neutralization (Table 6 value) [41]: 0.00639

B3: ePGT121.15.H6.L1 (antibody, V domains shown)
VH: B2 VH with W113F, N124K
VL: B2 VL
- neutralization (Table 6 value) [33]: 0.0263
- neutralization (Table 6 value) [34]: 0.00171
- neutralization (Table 6 value) [35]: 1.27
- neutralization (Table 6 value) [36]: 0.417
- neutralization (Table 6 value) [37]: 0.612
- neutralization (Table 6 value) [38]: 0.0127
- neutralization (Table 6 value) [39]: 0.635
- neutralization (Table 6 value) [40]: 0.0369
- neutralization (Table 6 value) [41]: 0.0118
